Source: US20050074821A1 (Amgen, published 2005)

Columns and labels:
[1] = molecular target: T1, recombinant human NGF 1-120 (human, UniProt P01138 122-241); assay: cell-based or functional assay
Target sequence in this assay (P01138 other isoform, or with tags, fused parts or gaps): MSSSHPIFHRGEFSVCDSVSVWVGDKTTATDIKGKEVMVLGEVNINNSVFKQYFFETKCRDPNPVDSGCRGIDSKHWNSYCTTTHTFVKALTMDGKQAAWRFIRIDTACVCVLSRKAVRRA

[2] = molecular target: recombinant rat beta-NGF (R&D Systems) (rat, UniProt P25427 122-241); assay: cell-based or functional assay
[3] = molecular target: T1, recombinant human NGF 1-120; assay: KinExA; 10 pM and 30 pM Ab 4D4 equilibrated with huNGF in solution for 8 h, free antibody captured on huNGF-coated beads, dual-curve one-site fit
Target sequence in this assay (P01138 other isoform, or with tags, fused parts or gaps, form in doubt): as the sequence (P01138 other isoform, or with tags, fused parts or gaps) above

[4] = molecular target: T1, recombinant human NGF 1-120; assay: cell-based or functional assay; remark: listed apart in the source
Target sequence in this assay (P01138 other isoform, or with tags, fused parts or gaps, form in doubt): as the sequence (P01138 other isoform, or with tags, fused parts or gaps) above

[5] = molecular target: T2, NGF subtilisin peptide S2 (28.3) EVMVL (35-39) (human); assay: subtilisin-digested NGF incubated with antibody, Microcon 10 separation, HPLC of bound and unbound fractions
T2 peptide: EVMVL

[6] = molecular target: T3, NGF subtilisin peptide S1 (4.4) SRKAVRR (113-119) (human); assay: as above
T3 peptide: SRKAVRR

[7] = molecular target: T4, NGF Lys-C peptide K2 (39.5) QAAWRFIRIDTACVCVLSRK (human, Cysteine residues were reduced and carboxymethylated); assay: Lys-C digest of NGF incubated with antibody, Microcon 100 separation, reversed phase HPLC
T4 construct: Calculated mass 2452; observed mass 2459.5
T4 peptide: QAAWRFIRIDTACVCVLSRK

[8] = molecular target: T5, NGF Lys-C peptide K1 (37.6) SSSHPIFHRGEFSVCDSVSVWVGDK (human, Cysteine residues were reduced and carboxymethylated); assay: as above
T5 construct: Calculated mass 2821; observed mass 2828.2
T5 peptide: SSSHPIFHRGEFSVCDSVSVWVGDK

[9] = molecular target: T6, synthetic hNGF peptide 33582-27-20 QAAWRFIRIDTAAVC (96-110) (human, conjugated through cysteine to a maleimide activated plate); assay: peptide ELISA, Ab binding signal; peptides # 20-21, C-terminus, 96-115
T6 construct: also called Peptide # 20
T6 peptide: QAAWRFIRIDTAAVC

[10] = molecular target: T7, synthetic hNGF peptide 33582-27-21 FIRIDTAAVAVLSRKC (101-115) (human, C-terminal cysteine tail, conjugated to a maleimide activated plate); assay: as above
T7 construct: also called Peptide # 21
T7 peptide: FIRIDTAAVAVLSRKC

[11] = molecular target: T8, synthetic hNGF peptide 33582-27-01 SSSHPIFHRGEFSVC (1-15) (human, conjugated through cysteine to a maleimide activated plate); assay: peptide ELISA, Ab binding signal; peptide #1, N-terminus, 1-15
T8 construct: also called Peptide # 1; peptide #1
T8 peptide: SSSHPIFHRGEFSVC

[12] = molecular target: T9, synthetic hNGF peptide 33582-27-19 TMDGKQAAWRFIRIDC (91-105) (human, C-terminal cysteine tail, conjugated to a maleimide activated plate); assay: peptide ELISA, Ab binding signal; peptide #19, internal, 91-105
T9 construct: also called Peptide # 19; peptide #19
T9 peptide: TMDGKQAAWRFIRIDC

[13] = molecular target: T1, recombinant human NGF 1-120; assay: cell-based or functional assay; remark: listed apart in the source
Target sequence in this assay (P01138 other isoform, or with tags, fused parts or gaps, form in doubt): as the sequence (P01138 other isoform, or with tags, fused parts or gaps) above

[14] = molecular target: T10, synthetic hNGF peptide 33582-27-10 NSVFKQYFFETKARDC (46-60) (human, C-terminal cysteine tail, conjugated to a maleimide activated plate); assay: peptide ELISA, Ab binding signal; peptide #10, L2, 46-60
T10 construct: also called Peptide # 10; peptide #10
T10 peptide: NSVFKQYFFETKARDC

[15] = molecular target: T11, synthetic hNGF peptide 33582-27-18 FVKALTMDGKQAAWRC (86-100) (human, C-terminal cysteine tail, conjugated to a maleimide activated plate); assay: ELISA, peptide conjugated to maleimide plate, 4D4.IgG1 at 0, 3, 10, 30 ug/ml, anti-hFc-HRP
T11 construct: also called Peptide # 18
T11 peptide: FVKALTMDGKQAAWRC

[16] = molecular target: T12, synthetic hNGF peptide 33582-27-17 TTTHTFVKALTMDGKC (81-95) (human, C-terminal cysteine tail, conjugated to a maleimide activated plate); assay: peptide ELISA, Ab binding signal; peptide #17, L4, 81-95
T12 construct: also called Peptide # 17; peptide #17
T12 peptide: TTTHTFVKALTMDGKC

[17] = molecular target: T13, synthetic hNGF peptide 33582-27-16 WNSYATTTHTFVKALC (76-90) (human, C-terminal cysteine tail, conjugated to a maleimide activated plate); assay: peptide ELISA, Ab binding signal; peptide #16, internal, 76-90
T13 construct: also called Peptide # 16; peptide #16
T13 peptide: WNSYATTTHTFVKALC

recombinant rat beta-NGF (R&D Systems), sequence (P25427 122-241 limits assumed): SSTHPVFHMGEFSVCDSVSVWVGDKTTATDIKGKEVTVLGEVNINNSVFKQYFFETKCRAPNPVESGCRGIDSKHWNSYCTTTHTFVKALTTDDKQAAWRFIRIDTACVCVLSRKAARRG

B1: anti-NGF antibody 14D10 (antibody, V domains shown)
VH: EVQLVESGGGLVQPGRSLRLSCTASGFTFEDYAMHWVRQAPGKGLEWVSGISWNRGIIGYADSVKGRFTVSRDNAKNSLYLQMNSLRAEDTALYYCAKEGYYGSGRPGYFYYVMDVWGQGTTVTVSS
VL: EIVLTQSPGTLSLSPGERATLSCRASQSVSSGFLAWFQQKPGQAPRLLIYGASSRATAIPDRFSGSGSGTDFTLTISRLEPEDFAVYYCQQYGSSPYTFGQGTKLEIK
IC50 @ hNGF (nM), DRG neuron NGF neutralization assay; clone 14D10 [1]: 0.392 nM | IC50 @ rNGF (nM), DRG neuron NGF neutralization assay; clone 14D10 [2]: > 13 nM

B2: anti-NGF antibody 14D11 (antibody, V domains shown)
VH: EVQLVQSGAEVKKPGESLKISCKGSGYNFTTYWIGWVRQMPGKGLEWMGIIYPGDSDTKYSPSFQGQVTISADKSISTAYLQWSSLKASDTAMYYCARNYYGSGTYYYYYGMNVWGQGTTVTVSS
VL: DIQMTQSPSSVSASVGDRVTITCRASQGISIWLAWYQHKPGKAPKLLIYAASSLQSGVPSRFSGSGSGTDFTLTISSLQPEDFATYYCQQANSFPWTFGQGTKVEIK
IC50 @ hNGF (nM), DRG neuron NGF neutralization assay; clone 14D11 [1]: 0.28 nM | IC50 @ rNGF (nM), DRG neuron NGF neutralization assay; clone 14D11 [2]: > 20 nM

B3: anti-NGF monoclonal antibody 4D4 (antibody, V domains shown)
VH: EVQLVESGGGLVQPGGSLRLSCAASGFTLRSYSMNWVRQAPGKGLEWVSYISRSSHTIFYADSVKGRFTISRDNAKNSLYLQMDSLRDEDTAMYYCARVYSSGWHVSDYFDYWGQGILVTVSS
VL: AIQLTQSPSSLSASVGDRVTITCRASQGISSALAWYQQKPGKAPKLLIYDASSLESGVPSRFSGSGSGTDFTLTISSLQPEDFATYYCQQFNSYPLTFGGGTKVEIK
notes: also called 4D4.D7; #124 (parent)
Kd [3]: ~0.004 nM | IC50, inhibition of NGF-induced VR1 expression in rat DRG neurons; sample 119 (from 124) [4]: < 1.2 nM | IC50, inhibition of NGF-induced VR1 expression in rat DRG neurons; sample 124 (parent) [4]: < 0.57 nM | IC50, inhibition of NGF-induced VR1 expression in rat DRG neurons; sample 125 (from 124) [4]: < 0.3 nM | IC50, inhibition of NGF-induced VR1 expression in rat DRG neurons; sample 167 (from same sample as 124) [4]: 0.5 nM | binding result [5]: binds | binding result [6]: binds | binding result [7]: binds | binding result [8]: binds

B4: 4D4.IgG1 (recombinant anti-NGF 4D4 antibody with IgG1 heavy chain constant region) (antibody, V domains shown)
VH: B3 VH
VL: AIQLTQSPSSLSASVGDRVTITCRASQGISSALAWYQQKPGKAPKLLIYDASSLESGVPSRFSGSGSGTDFTLTISSLQPEDFATYYCQQFNSYPLTFGGGTKVEIKR
notes: also called 4D4.IgG1.S; human anti-hNGF Ab 4D4.IgG1
binding result [9]: binds | binding result [10]: binds | binding result [11]: binds | binding result [12]: binds | IC50 @ hNGF (nM), DRG neuron based NGF neutralization bioassay; 4D4.IgG1.R [13]: 0.149 nM | IC50 @ hNGF (nM), DRG neuron based NGF neutralization bioassay; 4D4.IgG1.S [13]: 0.159 nM | IC50 @ rNGF (nM), DRG neuron based NGF neutralization bioassay; 4D4.IgG1.R [2]: > 34 nM | IC50 @ rNGF (nM), DRG neuron based NGF neutralization bioassay; 4D4.IgG1.S [2]: > 45 nM | binding result [14]: binds | binding result [15]: binds | binding result [16]: binds | binding result [17]: binds
